Values quoted from earlier work as cited in article PMC7561547.

Target: Her2 (Homo sapiens) (UniProt P04626)

Substance: trastuzumab
- Kd: 0.1 nM
